Source: patent US8597902B2, “Peptide protection against ultraviolet light toxicity” (Helix Biomedix, Inc., priority 2009, dated 2013)
Ends that are not written are not given here.

How the values were obtained:
[1] = biological target: T1, Activated human Chk2 enzyme (Homo sapiens, UniProt O96017); experiment: K-LISA Checkpoint Activity Kit: Chk2 phosphorylation of biotinylated cdc25c surrogate substrate peptide; type: biochemical; details: peptide 50 μg/mL final concentration; for inhibition of the activity of Chk2 against the substrate peptide (in words): carboxy-terminal amidated peptides, absorbance 450/540 nm
T1 construct: purchased Sigma (St. Louis, MO)
Description: Activated human Chk2enzyme for these tests was obtained from Sigma (St. Louis, MO).
This incubation allowed for substrate phosphorylation by Chk2 and substrate capture in a single step. Following incubation, the phosphorylated substrate was detected using an anti-phosphoserine primary antibody, a horseradish peroxidase (HRP)-conjugated secondary antibody and TMB (tetramethylbenzidine) substrate for color development (the primary and secondary antibodies, and TMB, were provided in the K-LISA™ Checkpoint Activity Kit). Assay sensitivity was increased by the addition of the Stop solution provided in the kit. Relative Chk2 activity was determined by reading the absorbance of each well at dual wavelengths 450/540 nm.

[2] = biological target: Activated human checkpoint kinase 2 (Chk2) (human)

T1 sequence (O96017 whole entry): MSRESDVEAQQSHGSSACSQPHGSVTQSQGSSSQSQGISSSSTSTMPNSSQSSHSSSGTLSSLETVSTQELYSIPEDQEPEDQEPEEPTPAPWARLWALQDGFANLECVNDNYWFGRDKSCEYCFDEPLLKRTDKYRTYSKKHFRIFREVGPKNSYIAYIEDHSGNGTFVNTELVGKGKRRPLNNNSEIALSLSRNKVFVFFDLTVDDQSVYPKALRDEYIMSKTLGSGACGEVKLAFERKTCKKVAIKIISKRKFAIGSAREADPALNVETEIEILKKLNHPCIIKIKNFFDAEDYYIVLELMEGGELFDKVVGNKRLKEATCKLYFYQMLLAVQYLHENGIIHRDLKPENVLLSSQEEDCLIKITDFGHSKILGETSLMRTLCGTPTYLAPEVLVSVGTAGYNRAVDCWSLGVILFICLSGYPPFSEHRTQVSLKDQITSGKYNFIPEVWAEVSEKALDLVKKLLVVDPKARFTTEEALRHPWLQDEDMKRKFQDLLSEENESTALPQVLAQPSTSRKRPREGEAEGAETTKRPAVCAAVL

Molecule	inhibition of the activity of Chk2 against the substrate peptide (in words) [1]	reduction of Chk2 phosphorylation activity ([1]; versus control Chk2 activity)	Reduction of Chk2 phosphorylation activity (K-LISA, absorbance 450/540 nm) [2] [%]
FHSIYQSH (FHSIYQSH-NH2; listed as Homo sapiens) [SEQ ID NO:6]	inhibited	–	–
HSLYQSH (HSLYQSH-NH2; listed as Homo sapiens) [SEQ ID NO:8]	inhibited	–	–
SLYQS (not fully specified (C-terminus); listed as Homo sapiens) [SEQ ID NO:10]	inhibited	about 48%	–
YHSIYQSHI (YHSIYQSHI-NH2; listed as Homo Sapiens) [SEQ ID NO:3]	inhibited	–	–
YHSLYESK (YHSLYESK-NH2; listed as Homo sapiens) [SEQ ID NO:5]	inhibited	–	–
YHSLYQSHL (YHSLYQSHL-NH2; listed as Homo sapiens) [SEQ ID NO:2]	inhibited	–	–
SLYQS-NH2 [SEQ ID NO:10 peptide (SLYQS; Ser-Leu-Tyr-Gln-Ser), carboxy-terminal amidated]	–	–	48
